Laboratory results: US20120058906A1
Each block holds one substance with its values, some of them ahead of it.

Key:
[1] = target: rHuman P-Cadherin/Fc Chimera, CF (R&D Systems Cat#861-PC) (human) (UniProt P22223); assay: ECL (MSD Multi-Spot) binding assay, antigen spotted on plate; Fab 51 nM; blank spot 335
[2] = target: rHuman P-Cadherin/Fc Chimera, CF (R&D Systems Cat#861-PC) (human) (UniProt P22223); assay: ECL (MSD Multi-Spot) binding assay, antigen spotted on plate; Fab 6 nM; blank spot 191
[3] = target: rHuman P-Cadherin/Fc Chimera, CF (R&D Systems Cat#861-PC) (human) (UniProt P22223); assay: ECL (MSD Multi-Spot) binding assay, antigen spotted on plate; Fab 17 nM; blank spot 143
[4] = target: rHuman P-Cadherin/Fc Chimera, CF (R&D Systems Cat#861-PC) (human) (UniProt P22223); assay: ECL (MSD Multi-Spot) binding assay, antigen spotted on plate; Fab 154 nM; blank spot 447
[5] = target: Recombinant Human DLL4 (R&D Systems Cat#1506-D4/CF) (human) (UniProt Q9NR61); assay: ECL (MSD Multi-Spot) binding, antigen spotted on plate, Fab at 7.8 nM; blank spot 316
[6] = target: rHuman P-Cadherin/Fc Chimera, CF (R&D Systems Cat#861-PC) (human) (UniProt P22223); assay: as above
[7] = target: rHuman HGF R/c-MET/Fc Chimera, CF (R&D Systems Cat#358-MT/CF) (human) (UniProt P08581); assay: MSD ECL multi-spot, Fab 0.43 uM, blank 879
[8] = target: rHuman EGF R/Fc Chimera, CF (R&D Systems Cat#344-ER) (human) (UniProt P00533); assay: MSD ECL multi-spot, Fab 0.43 uM, blank 879
[9] = target: rHuman CD44/Fc Chimera, CF (R&D Systems Cat#3660-CD) (human) (UniProt P16070); assay: MSD ECL multi-spot, Fab 0.43 uM, blank 879
[10] = target: Recombinant Human DLL4 (R&D Systems Cat#1506-D4/CF) (human) (UniProt Q9NR61); assay: ECL (MSD Multi-Spot) binding, antigen spotted on plate, Fab at […]; blank spot 294
[11] = target: rHuman P-Cadherin/Fc Chimera, CF (R&D Systems Cat#861-PC) (human) (UniProt P22223); assay: as above
[12] = target: Recombinant Human DLL4 (R&D Systems Cat#1506-D4/CF) (human) (UniProt Q9NR61); assay: ECL (MSD Multi-Spot) binding, antigen spotted on plate, Fab at […]; blank spot 250
[13] = target: Recombinant Human DLL4 (R&D Systems Cat#1506-D4/CF) (human) (UniProt Q9NR61); assay: ECL (MSD Multi-Spot) binding, antigen spotted on plate, Fab at 1000 nM; blank spot 1133
[14] = target: rHuman P-Cadherin/Fc Chimera, CF (R&D Systems Cat#861-PC) (human) (UniProt P22223); assay: as above
[15] = target: Recombinant Human DLL4 (R&D Systems Cat#1506-D4/CF) (human) (UniProt Q9NR61); assay: ECL (MSD Multi-Spot) binding, antigen spotted on plate, Fab at 125 nM; blank spot 403
[16] = target: Recombinant Human DLL4 (R&D Systems Cat#1506-D4/CF) (human) (UniProt Q9NR61); assay: ECL (MSD Multi-Spot) binding, antigen spotted on plate, Fab at 62.5 nM; blank spot 268
[17] = target: rHuman P-Cadherin/Fc Chimera, CF (R&D Systems Cat#861-PC) (human) (UniProt P22223); assay: as above
[18] = target: Recombinant Human DLL4 (R&D Systems Cat#1506-D4/CF) (human) (UniProt Q9NR61); assay: ECL (MSD Multi-Spot) binding, antigen spotted on plate, Fab at 500 nM; blank spot 680
[19] = target: rHuman P-Cadherin/Fc Chimera, CF (R&D Systems Cat#861-PC) (human) (UniProt P22223); assay: as above
[20] = target: Recombinant Human DLL4 (R&D Systems Cat#1506-D4/CF) (human) (UniProt Q9NR61); assay: ECL (MSD Multi-Spot) binding, antigen spotted on plate, Fab at 250 nM; blank spot 590
[21] = target: rHuman P-Cadherin/Fc Chimera, CF (R&D Systems Cat#861-PC) (human) (UniProt P22223); assay: as above
[22] = target: rHuman HGF R/c-MET/Fc Chimera, CF (R&D Systems Cat#358-MT/CF) (human) (UniProt P08581); assay: MSD ECL multi-spot assay, antigen spotted on plate, Fab […]; blank spot 2877
[23] = target: rHuman IGF-1 sR (IGF-1 sR), CF (R&D Systems Cat#391-GR) (human) (UniProt P08069); assay: as above
[24] = target: rHuman ErbB2/Fc Chimera, CF (R&D Systems Cat#1129-ER) (human) (UniProt P04626); assay: as above
[25] = target: rHuman EGF R/Fc Chimera, CF (R&D Systems Cat#344-ER) (human) (UniProt P00533); assay: MSD ECL multi-spot assay, antigen spotted on plate, Fab 0.51 uM; blank spot 1393
[26] = target: rHuman Notch-1/Fc Chimera, CF (R&D Systems Cat#3647-TK) (human) (UniProt P46531); assay: as above
[27] = target: rHuman P-Cadherin/Fc Chimera, CF (R&D Systems Cat#861-PC) (human) (UniProt P22223); assay: as above
[28] = target: rHuman Erythropoietin R/Fc Chimera, CF (R&D Systems Cat#963-ER) (human) (UniProt P19235); assay: as above
Chain of rHuman Erythropoietin R/Fc Chimera, CF (R&D Systems Cat#963-ER) (human) (P19235 25-250, change not shown): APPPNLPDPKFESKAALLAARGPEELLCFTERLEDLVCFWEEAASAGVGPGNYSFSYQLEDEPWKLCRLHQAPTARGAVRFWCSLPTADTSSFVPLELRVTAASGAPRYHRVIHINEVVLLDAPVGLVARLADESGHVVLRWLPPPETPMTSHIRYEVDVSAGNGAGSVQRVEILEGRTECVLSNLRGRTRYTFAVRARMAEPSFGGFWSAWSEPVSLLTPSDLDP

ECL signal [1]: 854
ECL signal [2]: 358
ECL signal [3]: 542
ECL signal [4]: 1730
Substance: Fab VH5-51_IGHD5-18*01>3_IGHJ4*01 & V3-4_IGLJ1*01

ECL signal [5]: 407
ECL signal [6]: 695
ECL signal [7]: 1140
ECL signal [8]: 1230
ECL signal [9]: 1500
ECL signal [10]: 525
ECL signal [11]: 971
ECL signal [12]: 528
ECL signal [13]: 2780
ECL signal [14]: 4500
ECL signal [15]: 912
ECL signal [16]: 715
ECL signal [17]: 1170
ECL signal [18]: 2320
ECL signal [19]: 3450
ECL signal [20]: 1560
ECL signal [21]: 2780
Substance: Fab VH1-46_IGHD6-13*01_IGHJ4*01 & B3_IGKJ1*01

ECL signal [22]: 6310
ECL signal [23]: 5470
ECL signal [24]: 6940
Substance: Fab VH1-46_IGHD6-13*01_IGHJ4*01 & A27_IGKJ1*01

ECL signal [25]: 1810
ECL signal [26]: 2880
ECL signal [27]: 3180
ECL signal [28]: 2560
Substance: Fab VH4-34_IGHD7-27*01_IGHJ4*01 & L5_IGKJ1*01
